Drawing on patent US5753229, this text covers Residual clonogenic ability (%) after MAb and rabbit complement and % inhibition of reactivity by 10 mM periodate for one molecule.

Test [1] concerns the target Ag 2.15 (FC-2.15 antigen of breast tumor cells; membrane bands of 160 kDa, 130 kDa and 115 kDa) (human).
The target is the same in test [2]. Briefly: cell ELISA on MCF-7 cells after periodate oxidation, against untreated cells. On the technique in general: An ELISA detects its analyte on a solid surface through an enzyme-linked reagent.

B1: monoclonal antibody FC-2.15 (antibody, V domains shown)
VH: VKLQESGGGLVQPGGSLKLSCAASGFDFSRYWMSYVRQAPGKGLEWIGEIDPDSSTINYTPSLKDKFIISRDNAKNTLYLQMSKVRSEDTALYYCARETGTPFDYWGQGTTLTVSS
VL: DIVMTQSPASLSVATGEKVTIRCITSTDIDDDMNWYEQKPGEPPKLLISEGNTLRPGVPSPFSSSGYGTDFVFTIENTHSEDVADYYCLQSDNMPFTFGSGTKLEIKP
For the molecule B1, the Residual clonogenic ability (%) after MAb and rabbit complement in test [1] was found to be 11.7%. In test [2], this molecule gave a % inhibition of reactivity by 10 mM periodate of 47.1%.
